Experimental findings from patent publication US20140087995A1 (published 2014) are described below.

In general, IC50 refers to the concentration at which inhibition is half-maximal.

Numbered stars: 1 amine (or outer) side, 2 acyl side, 3 side chain; on linkers, the order of the positions; unused ones are H or OH. Bridge positions count the residues as written; N and C are the ends. Side chains are listed from the residue outwards. Ends that are not written are not given here. * marks the point of attachment. C20 diacid = O=C(O)CCCCCCCCCCCCCCCCCCC(=O)*; γGlu = O=C(O)[C@H](CCC(=O)[*:2])N[*:1]; AEEA = NCCOCCOCC(=O)O

For assay [1], the target named is T1, human calcitonin receptor (human, UniProt P30988 25-474).
T1 sequence (looked up): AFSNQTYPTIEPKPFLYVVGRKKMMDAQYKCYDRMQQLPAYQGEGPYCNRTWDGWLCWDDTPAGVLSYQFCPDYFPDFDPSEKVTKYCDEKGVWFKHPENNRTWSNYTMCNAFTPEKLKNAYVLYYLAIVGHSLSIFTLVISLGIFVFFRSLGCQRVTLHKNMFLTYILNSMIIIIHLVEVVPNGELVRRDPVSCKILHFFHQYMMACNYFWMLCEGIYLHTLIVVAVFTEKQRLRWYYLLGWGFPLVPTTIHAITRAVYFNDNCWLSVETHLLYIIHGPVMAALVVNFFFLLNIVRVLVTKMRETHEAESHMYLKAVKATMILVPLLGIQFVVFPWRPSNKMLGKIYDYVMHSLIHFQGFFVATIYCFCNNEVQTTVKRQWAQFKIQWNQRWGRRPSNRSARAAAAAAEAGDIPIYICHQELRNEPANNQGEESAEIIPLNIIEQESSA
The assay is described as follows: cell-based or functional assay.

The target of assay [2] is T2, human calcitonin receptor (human, UniProt P30988 25-474).
T2 construct: whole, on cells; also called hCTR; hCT
T2 sequence (looked up): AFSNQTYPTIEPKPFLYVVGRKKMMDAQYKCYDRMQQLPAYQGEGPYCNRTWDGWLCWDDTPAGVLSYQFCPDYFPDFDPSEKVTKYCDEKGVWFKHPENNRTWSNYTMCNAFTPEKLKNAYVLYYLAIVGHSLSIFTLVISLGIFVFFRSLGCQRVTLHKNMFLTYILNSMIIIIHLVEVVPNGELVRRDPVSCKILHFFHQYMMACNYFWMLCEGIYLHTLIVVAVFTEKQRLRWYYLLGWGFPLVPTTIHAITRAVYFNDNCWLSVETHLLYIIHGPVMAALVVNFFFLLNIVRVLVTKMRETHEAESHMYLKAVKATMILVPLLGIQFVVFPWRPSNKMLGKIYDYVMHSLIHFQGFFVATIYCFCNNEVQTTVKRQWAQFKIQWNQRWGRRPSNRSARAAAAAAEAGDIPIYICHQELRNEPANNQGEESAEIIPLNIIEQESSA
The assay is described as follows: ratio of IC50 at human calcitonin receptor to IC50 at human amylin receptor (SPA competition assays). The gist of the method: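 Membranes (35 ng/μL final) + SPA beads, 50 mM Hepes pH 7.4 buffer with 1 mM CaCl2, 5 mM MgCl₂, 0.1% OA, 0.02% Tween20; 120 min, 25° C, shaking; centrifuged, counted; IC₅₀ by one-site binding competition.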

Assay [3] has as its target T2, human calcitonin receptor. The assay is described as follows: SPA competition against 125I-calcitonin, membranes of BHK cells with human calcitonin receptor (Assay VII). The gist of the method: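 BHK hCTR membranes 35 ng/μL + SPA beads 0.05 mg/well; buffer 50 mM Hepes pH 7.4, 1 mM CaCl2, 5 mM MgCl₂, 0.1% OA, 0.02% Tween20. 120 min, 25° C., shaking. Scintillation count; IC50 by one-site binding competition.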

B1: N^α1-[(4S)-4-carboxy-4-(19-carboxynonadecanoylamino)butanoyl]-[Glu14,Arg17,Pro21,Pro25,Pro28,Pro29,Pro37]-h-amylin (peptide)
peptide: {C20 diacid-γGlu}-KCNTATCATQRLAEFLRHSSPNFGPILPPTNVGSNTP-NH2
modifications: disulfide 2-7
SMILES: CC[C@H](C)[C@H](NC(=O)[C@@H]1CCCN1C(=O)CNC(=O)[C@H](Cc1ccccc1)NC(=O)[C@H](CC(N)=O)NC(=O)[C@@H]1CCCN1C(=O)[C@H](CO)NC(=O)[C@H](CO)NC(=O)[C@H](Cc1c[nH]cn1)NC(=O)[C@H](CCCNC(=N)N)NC(=O)[C@H](CC(C)C)NC(=O)[C@H](Cc1ccccc1)NC(=O)[C@H](CCC(=O)O)NC(=O)[C@H](C)NC(=O)[C@H](CC(C)C)NC(=O)[C@H](CCCNC(=N)N)NC(=O)[C@H](CCC(N)=O)NC(=O)[C@@H](NC(=O)[C@H](C)NC(=O)[C@@H]1CSSC[C@H](NC(=O)[C@H](CCCCN)NC(=O)CC[C@H](NC(=O)CCCCCCCCCCCCCCCCCCC(=O)O)C(=O)O)C(=O)N[C@@H](CC(N)=O)C(=O)N[C@@H]([C@@H](C)O)C(=O)N[C@@H](C)C(=O)N[C@@H]([C@@H](C)O)C(=O)N1)[C@@H](C)O)C(=O)N[C@@H](CC(C)C)C(=O)N1CCC[C@H]1C(=O)N1CCC[C@H]1C(=O)N[C@H](C(=O)N[C@@H](CC(N)=O)C(=O)N[C@H](C(=O)NCC(=O)N[C@@H](CO)C(=O)N[C@@H](CC(N)=O)C(=O)N[C@H](C(=O)N1CCC[C@H]1C(N)=O)[C@@H](C)O)C(C)C)[C@@H](C)O
notes: Synthetic acylated analogue of human amylin; also called compound 4
As to B1, in assay [1], the “hCTR funct. EC50 (CRE luciferase reporter, BHK cells)” value is 0.07 nM.

B2: N^α1-[2-[2-[2-[[2-[2-[2-[[(4S)-4-carboxy-4-(19-carboxynonadecanoylamino)butanoyl]amino]ethoxy]ethoxy]acetyl]amino]ethoxy]ethoxy]acetyl]-[Glu14,Arg17,Pro21,Pro27 … (peptide)
peptide: {C20 diacid-γGlu-AEEA-AEEA}-KCNTATCATQRLAEFLRHSSPNFGAIPSSTNVGSNTP-NH2
modifications: disulfide 2-7
SMILES: CC[C@H](C)[C@H](NC(=O)[C@H](C)NC(=O)CNC(=O)[C@H](Cc1ccccc1)NC(=O)[C@H](CC(N)=O)NC(=O)[C@@H]1CCCN1C(=O)[C@H](CO)NC(=O)[C@H](CO)NC(=O)[C@H](Cc1c[nH]cn1)NC(=O)[C@H](CCCNC(=N)N)NC(=O)[C@H](CC(C)C)NC(=O)[C@H](Cc1ccccc1)NC(=O)[C@H](CCC(=O)O)NC(=O)[C@H](C)NC(=O)[C@H](CC(C)C)NC(=O)[C@H](CCCNC(=N)N)NC(=O)[C@H](CCC(N)=O)NC(=O)[C@@H](NC(=O)[C@H](C)NC(=O)[C@@H]1CSSC[C@H](NC(=O)[C@H](CCCCN)NC(=O)COCCOCCNC(=O)COCCOCCNC(=O)CC[C@H](NC(=O)CCCCCCCCCCCCCCCCCCC(=O)O)C(=O)O)C(=O)N[C@@H](CC(N)=O)C(=O)N[C@@H]([C@@H](C)O)C(=O)N[C@@H](C)C(=O)N[C@@H]([C@@H](C)O)C(=O)N1)[C@@H](C)O)C(=O)N1CCC[C@H]1C(=O)N[C@@H](CO)C(=O)N[C@@H](CO)C(=O)N[C@H](C(=O)N[C@@H](CC(N)=O)C(=O)N[C@H](C(=O)NCC(=O)N[C@@H](CO)C(=O)N[C@@H](CC(N)=O)C(=O)N[C@H](C(=O)N1CCC[C@H]1C(N)=O)[C@@H](C)O)C(C)C)[C@@H](C)O
notes: Synthetic acylated analogue of human amylin; also called compound 20
For the molecule B2, the “hCTR funct. EC50 (CRE luciferase reporter, BHK cells)” value in assay [1] was 0.285 nM.

B3: N^ε1-[(4S)-4-carboxy-4-[[(4S)-4-carboxy-4-(19-carboxynonadecanoylamino)butanoyl]amino]butanoyl]-[Glu14,Arg17,Pro21,Pro27,Pro34,Phe37]-h-amylin (peptide)
peptide: K([γGlu-γGlu-C20 diacid])CNTATCATQRLAEFLRHSSPNFGAIPSSTNVGPNTF-NH2
modifications: disulfide 2-7; N-terminus assumed
SMILES: CC[C@H](C)[C@H](NC(=O)[C@H](C)NC(=O)CNC(=O)[C@H](Cc1ccccc1)NC(=O)[C@H](CC(N)=O)NC(=O)[C@@H]1CCCN1C(=O)[C@H](CO)NC(=O)[C@H](CO)NC(=O)[C@H](Cc1c[nH]cn1)NC(=O)[C@H](CCCNC(=N)N)NC(=O)[C@H](CC(C)C)NC(=O)[C@H](Cc1ccccc1)NC(=O)[C@H](CCC(=O)O)NC(=O)[C@H](C)NC(=O)[C@H](CC(C)C)NC(=O)[C@H](CCCNC(=N)N)NC(=O)[C@H](CCC(N)=O)NC(=O)[C@@H](NC(=O)[C@H](C)NC(=O)[C@@H]1CSSC[C@H](NC(=O)[C@@H](N)CCCCNC(=O)CC[C@H](NC(=O)CC[C@H](NC(=O)CCCCCCCCCCCCCCCCCCC(=O)O)C(=O)O)C(=O)O)C(=O)N[C@@H](CC(N)=O)C(=O)N[C@@H]([C@@H](C)O)C(=O)N[C@@H](C)C(=O)N[C@@H]([C@@H](C)O)C(=O)N1)[C@@H](C)O)C(=O)N1CCC[C@H]1C(=O)N[C@@H](CO)C(=O)N[C@@H](CO)C(=O)N[C@H](C(=O)N[C@@H](CC(N)=O)C(=O)N[C@H](C(=O)NCC(=O)N1CCC[C@H]1C(=O)N[C@@H](CC(N)=O)C(=O)N[C@H](C(=O)N[C@@H](Cc1ccccc1)C(N)=O)[C@@H](C)O)C(C)C)[C@@H](C)O
Take B3: the “Ratio hCT/hAmylin binding” value in assay [2] was found to be 18. In addition, the IC50 in assay [3] is 2.73 nM.
For K([γGlu-γGlu-C20 diacid])CNTATCATQRLAEFLRHSSPNFGAILSSTPVGPETY-NH2 (disulfide 2-7 (inferred)) the same measures were 22.6 and 1.56 nM.

B4: N^ε1-[(4S)-4-carboxy-4-[[(4S)-4-carboxy-4-(19-carboxynonadecanoylamino)butanoyl]amino]butanoyl]-[Ser14,Arg17,Pro21,Pro27,Pro34,Glu35]-h-amylin (peptide)
peptide: K([γGlu-γGlu-C20 diacid])CNTATCATQRLASFLRHSSPNFGAIPSSTNVGPETY-NH2
modifications: disulfide 2-7; N-terminus assumed
SMILES: CC[C@H](C)[C@H](NC(=O)[C@H](C)NC(=O)CNC(=O)[C@H](Cc1ccccc1)NC(=O)[C@H](CC(N)=O)NC(=O)[C@@H]1CCCN1C(=O)[C@H](CO)NC(=O)[C@H](CO)NC(=O)[C@H](Cc1c[nH]cn1)NC(=O)[C@H](CCCNC(=N)N)NC(=O)[C@H](CC(C)C)NC(=O)[C@H](Cc1ccccc1)NC(=O)[C@H](CO)NC(=O)[C@H](C)NC(=O)[C@H](CC(C)C)NC(=O)[C@H](CCCNC(=N)N)NC(=O)[C@H](CCC(N)=O)NC(=O)[C@@H](NC(=O)[C@H](C)NC(=O)[C@@H]1CSSC[C@H](NC(=O)[C@@H](N)CCCCNC(=O)CC[C@H](NC(=O)CC[C@H](NC(=O)CCCCCCCCCCCCCCCCCCC(=O)O)C(=O)O)C(=O)O)C(=O)N[C@@H](CC(N)=O)C(=O)N[C@@H]([C@@H](C)O)C(=O)N[C@@H](C)C(=O)N[C@@H]([C@@H](C)O)C(=O)N1)[C@@H](C)O)C(=O)N1CCC[C@H]1C(=O)N[C@@H](CO)C(=O)N[C@@H](CO)C(=O)N[C@H](C(=O)N[C@@H](CC(N)=O)C(=O)N[C@H](C(=O)NCC(=O)N1CCC[C@H]1C(=O)N[C@@H](CCC(=O)O)C(=O)N[C@H](C(=O)N[C@@H](Cc1ccc(O)cc1)C(N)=O)[C@@H](C)O)C(C)C)[C@@H](C)O
notes: also called compound 120
Take B4: the “Ratio hCT/hAmylin binding” value in assay [2] was found to be 45.3. For the same molecule, in assay [3], the IC50 turned out to be 3.44 nM.
